From US6641809
Blank lines part the entries; values can stand above or below the substance they belong to.

How the values were obtained:
[1] = molecular target: CD28 receptor (human) (UniProt P10747); assay: cell-based or functional assay
[2] = molecular target: B7 antigen (human) (UniProt P33681); assay: flow cytometry, 5E1 cells preincubated with unlabeled BB-1
[3] = molecular target: B7 antigen (human) (UniProt P33681); assay: flow cytometry, T51 cells preincubated with unlabeled BB-1
[4] = molecular target: B7 antigen (human) (UniProt P33681); assay: flow cytometry, direct staining of Jijoye cells (BL, positive for CD28 adhesion)
[5] = molecular target: B7 antigen (human) (UniProt P33681); assay: cell-based or functional assay
[6] = molecular target: B7 antigen (human) (UniProt P33681); assay: flow cytometry, HL60 cells preincubated with unlabeled BB-1
[7] = molecular target: B7 antigen (human) (UniProt P33681); assay: flow cytometry, Jijoye cells; (- cold) minus (+ cold)
[8] = molecular target: B7 antigen (human) (UniProt P33681); assay: flow cytometry, direct staining of HSB2 cells (T-ALL, negative for CD28 adhesion; presence of B7 not shown)
[9] = molecular target: B7 antigen (human) (UniProt P33681); assay: flow cytometry, Daudi cells; (- cold) minus (+ cold)
[10] = molecular target: B7 antigen (human) (UniProt P33681); assay: flow cytometry, direct staining of Daudi cells (BL, positive for CD28 adhesion)
[11] = molecular target: B7 antigen (human) (UniProt P33681); assay: flow cytometry, Raji cells; (- cold) minus (+ cold)
[12] = molecular target: B7 antigen (human) (UniProt P33681); assay: flow cytometry, direct staining of Namalwa cells (BL, negative for CD28 adhesion; presence of B7 not shown)
[13] = molecular target: B7 antigen (human) (UniProt P33681); assay: flow cytometry, HSB2 cells preincubated with unlabeled BB-1
[14] = molecular target: B7 antigen (human) (UniProt P33681); assay: flow cytometry, direct staining of 5E1 cells (B-LCL, positive for CD28 adhesion)
[15] = molecular target: B7 antigen (human) (UniProt P33681); assay: flow cytometry, direct staining of THP-1 cells (AML, negative for CD28 adhesion; presence of B7 not shown)
[16] = molecular target: B7 antigen (human) (UniProt P33681); assay: flow cytometry, Raji cells preincubated with unlabeled BB-1
[17] = molecular target: B7 antigen (human) (UniProt P33681); assay: flow cytometry, direct staining of Raji cells (BL, positive for CD28 adhesion)
[18] = molecular target: B7 antigen (human) (UniProt P33681); assay: adhesion of T51 cells to CD28+ CHO cells, screen of a mAb panel
[19] = molecular target: B7 antigen (human) (UniProt P33681); assay: flow cytometry, T51 cells; (- cold) minus (+ cold)
[20] = molecular target: B7 antigen (human) (UniProt P33681); assay: flow cytometry, direct staining of HL60 cells (AML, negative for CD28 adhesion; presence of B7 not shown)
[21] = molecular target: B7 antigen (human) (UniProt P33681); assay: flow cytometry, Daudi cells preincubated with unlabeled BB-1
[22] = molecular target: B7 antigen (human) (UniProt P33681); assay: flow cytometry, CEM cells preincubated with unlabeled BB-1
[23] = molecular target: B7 antigen (human) (UniProt P33681); assay: flow cytometry, THP-1 cells preincubated with unlabeled BB-1
[24] = molecular target: B7 antigen (human) (UniProt P33681); assay: flow cytometry, 1A2 cells preincubated with unlabeled BB-1
[25] = molecular target: B7 antigen (human) (UniProt P33681); assay: flow cytometry, direct staining of T51 cells (B-LCL, positive for CD28 adhesion)
[26] = molecular target: B7 antigen (human) (UniProt P33681); assay: flow cytometry, 5E1 cells; (- cold) minus (+ cold)
[27] = molecular target: B7 antigen (human) (UniProt P33681); assay: adhesion of Jijoye cells to CD28+ CHO cells in 10 mM EDTA, BB-1 below 1 µg/ml
[28] = molecular target: B7 antigen (human) (UniProt P33681); assay: flow cytometry, direct staining of 1A2 cells (B-LCL, negative for CD28 adhesion; presence of B7 not shown)
[29] = molecular target: B7 antigen (human) (UniProt P33681); assay: flow cytometry, Jijoye cells preincubated with unlabeled BB-1
[30] = molecular target: B7 antigen (human) (UniProt P33681); assay: flow cytometry, Namalwa cells (negative for CD28 adhesion); (- cold) minus (+ cold)
[31] = molecular target: CD28 receptor (human) (UniProt P10747); assay: adhesion of T51 cells to CD28+ CHO cells, mAb 9.3 at 10 µg/ml plus EDTA
[32] = molecular target: CD28 receptor (human) (UniProt P10747); assay: inhibition of adhesion of PM lymphoblastoid cells to CD28+ CHO monolayers
[33] = molecular target: CD28 receptor (human) (UniProt P10747); assay: adhesion of B7-transfected COS cells to CD28+ CHO cells, EDTA omitted
[34] = molecular target: CD28 receptor (human) (UniProt P10747); assay: adhesion of T51 cells to CD28+ CHO cells, mAb 9.3 at 10 µg/ml without EDTA

Chain of B7 antigen (human) (P33681 35-288): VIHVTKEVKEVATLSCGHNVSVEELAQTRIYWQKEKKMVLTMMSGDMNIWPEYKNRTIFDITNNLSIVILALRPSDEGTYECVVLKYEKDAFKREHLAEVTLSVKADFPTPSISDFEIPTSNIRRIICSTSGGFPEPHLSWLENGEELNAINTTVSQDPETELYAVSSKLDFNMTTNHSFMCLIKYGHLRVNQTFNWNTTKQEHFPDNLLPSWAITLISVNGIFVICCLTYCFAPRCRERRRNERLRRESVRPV

[3H]-T incorporation, PHA blasts stimulated with B7+ CHO (40:1), with 9.3 Fab at 10 µg/ml [1]: 132000 cpm
Substance: mAb 9.3 (Fab fragments)

mean fluorescence (linear units), + COLD [2]: 2.4 linear units
mean fluorescence (linear units), + COLD [3]: 3 linear units
mean fluorescence (linear units), - COLD [4]: 17.8 linear units
[3H]-T incorporation, PHA blasts stimulated with B7+ CHO (40:1), with BB-1 at 10 µg/ml [5]: 98300 cpm
mean fluorescence (linear units), + COLD [6]: 3.1 linear units
SPECIFIC BINDING (mean fluorescence, linear units) [7]: 15 linear units
mean fluorescence (linear units), - COLD [8]: 2.3 linear units
SPECIFIC BINDING (mean fluorescence, linear units) [9]: 3.6 linear units
mean fluorescence (linear units), - COLD [10]: 6.4 linear units
SPECIFIC BINDING (mean fluorescence, linear units) [11]: 4.3 linear units
mean fluorescence (linear units), - COLD [12]: 3.8 linear units
mean fluorescence (linear units), + COLD [13]: 2.3 linear units
mean fluorescence (linear units), - COLD [14]: 13 linear units
mean fluorescence (linear units), - COLD [15]: 3.1 linear units
mean fluorescence (linear units), + COLD [16]: 2.8 linear units
mean fluorescence (linear units), - COLD [17]: 7.1 linear units
percent of CD28-mediated adhesion blocked [18]: > 30%
SPECIFIC BINDING (mean fluorescence, linear units) [19]: 13.4 linear units
mean fluorescence (linear units), - COLD [20]: 3.1 linear units
mean fluorescence (linear units), + COLD [21]: 2.8 linear units
mean fluorescence (linear units), + COLD [22]: 1.9 linear units
mean fluorescence (linear units), + COLD [23]: 3 linear units
mean fluorescence (linear units), + COLD [24]: 4.3 linear units
mean fluorescence (linear units), - COLD [25]: 16.4 linear units
SPECIFIC BINDING (mean fluorescence, linear units) [26]: 10.6 linear units
percent of adhesion blocked [27]: 60%
mean fluorescence (linear units), - COLD [28]: 4.5 linear units
mean fluorescence (linear units), + COLD [29]: 2.8 linear units
SPECIFIC BINDING (mean fluorescence, linear units) [30]: 1.6 linear units
Substance: mAb BB-1 (anti-B7) (antibody)

[3H]-T incorporation, PBL, + Anti-CD3, B7Ig (immob.), Exp. 1 [1]: 174000 cpm
[3H]-T incorporation, PBL, - Anti-CD3, B7Ig (immob.), Exp. 1 [1]: 100 cpm
Substance: B7Ig fusion protein (from UniProt P33681 35-215; P01857 99-330) (Fc fusion)

percent reduction of adhesion [31]: 93%
IC50 [32]: 10 nM
[3H]-T incorporation, PBL, + Anti-CD3, mAb 9.3 (immob.), Exp. 1 [1]: 137000 cpm
[3H]-T incorporation, PBL, + Anti-CD3, mAb 9.3 (soln.), Exp. 1 [1]: 156000 cpm
[3H]-T incorporation, PBL, + Anti-CD3, mAb 9.3 (soln.), Exp. 2 [1]: 75800 cpm
[3H]-T incorporation, PBL, - Anti-CD3, mAb 9.3 (immob.), Exp. 1 [1]: 100 cpm
[3H]-T incorporation, PBL, - Anti-CD3, mAb 9.3 (soln.), Exp. 1 [1]: 300 cpm
[3H]-T incorporation, PBL, - Anti-CD3, mAb 9.3 (soln.), Exp. 2 [1]: 400 cpm
percent of adhesion blocked [33]: 40%
percent reduction of adhesion [34]: 62%
Substance: Monoclonal antibody (mAb) 9.3 (anti-CD28)
